# According to patent US7871782B2, “Specific binding members against synaptophysin” (The University Court of the University of Aberdeen, priority 2004, dated 2011):
# How the values were obtained:
# [1] = system: human hepatic stellate cells; assay: Fluorescence microscopy of FITC-labelled scAb with cells; format: cell-based; conditions: 10 μg scAb, 1 h, room temperature
# Method: (§1) FITC-C1-3 scAb was tested for its ability to interact with hepatic stellate cells in culture by fluorescence microscopy. Human hepatic stellate cells were seeded (1×10^3 cells per chamber) on chamber slides (Nunclon, Naperville) in complete medium prior to experimentation. Cells were washed twice in phosphate buffered saline (PBS) and incubated in 500 μl Hepes/HBSS buffer (0.14M NaCl, 5.4 mM KCl, 0.34 mM Na2HPO4, 0.94 mm KH2PO4, 5.6 mM glucose, 1 mM CaCl2, 6 mM HEPES, 4 mM NaHCO3 pH7.4) containing 10 μg scAb or FITC-C1-3 scAb for 1 h at room temperature in the dark. The cells were then washed in PBS and mounted with Vectashield mounting medium (Vector laboratories, Burlingame, Calif.) containing 4′,6′ diamindino-2 phenylindole (DAPI) to stain cell nuclei and coverslips applied. Florescence microscopy was carried out using a Zeiss Axeola II microscope with a Photometrics Sensis camera, and data captured using the Smart Capture programme. Human hepatocytes (UK Human Tissue Bank) were originally cultured in a collagen-coated 24 well plate (1×10^5/well) and maintained in William's medium E supplemented with 80 units/ml penicillin and 80 μg/ml streptomycin.
# [2] = system: human hepatocytes; assay: as above; format: cell-based
# Method: as §1
# [3] = system: human HSCs; assay: Fluorescence microscopy without fixation: effect of peptides and monensin on FITC-C1-3 scAb binding; format: cell-based; conditions: monensin 2.5 and 15 μM; for effect on FITC-C1-3 association/binding to HSCs: added with 10 μg FITC-C1-3 scAb, peptides 0.25-25 nmoles, FIG. 13
# Method: Effect of synaptophysin peptides and monensin on FITC-C1-3 scAb binding to human HSCs. Human HSCs seeded into 24 well plates were washed and incubated in 500 μl Hepes/HBSS per well for 1 hour containing either: 10 μg C1-3 scAb; 10 μg FITC-C1-3 scAb; 10 μg FITC-C1-3 scAb and 0.25 nmoles of the target peptide; 10 μg FITC-C1-3 scAb and 2.5 nmoles of the target peptide; 10 μg FITC-C1-3 scAb and 25 nmoles of the target peptide; 10 μg FITC-C1-3 scAb and 25 nmoles of the target peptide P1; 10 μg FITC-C1-3 scAb and 2.5 μM monensin; 10 μg FITC-C1-3 scAb and 15 μM monensin; 10 μg FITC-3A8 scAb (scAb raised to microcystin and not expected to bind to HSCs). Cells incubated with monensin were preincubated for 10 minutes. Just prior to addition of scAb, the medium was changed and cells were re-dosed with monensin. […] Bar=μm. Monen=monensin; P1=the […] peptide (SEQ ID NO 27); P2=the target peptide.
# HSCs seeded into 24 well plates were washed with Hepes/HBSS and then incubated at 37° C. in 500 μl/well Hepes/HBSS containing 10 μg scAb with or without additional compounds. After 1 hour, the cells were washed 3 times with 500 μl Hepes/HBSS. Cells were analysed using an Axiovert 100 microscope (Zeiss, Germany) using filter set #9 (BP 450-490 nm; LP 515 nm).
# [4] = system: HSCs; assay: Effect of scAb incubation on HSC viability (attachment, protein assay); format: cell-based, human; conditions: 3 hours incubation, 5 μg scAb or indicated chemical, FIG. 12
# Method: Effect of scAb incubation on HSC viability. HSCs seeded into 24 well plates were incubated in 0.3 mls culture medium containing 5 μg scAb or the indicated-chemical. Cells were incubated for 3 hours prior to removal of medium and washing with 1×PBS. Attachment (as a measure of viability) was determined by a direct protein assay in the culture wells.
# [5] = system: human HSCs; assay: Uptake of scAb and conjugates by human HSCs in culture (Western blot of medium); format: cell-based; conditions: 5 μg scAb in 0.3 mls medium, FIG. 11
# Method: Uptake of C1-3 scAb and C1-3-conjugates by human HSCs in culture. HSCs seeded into 24 well plates were incubated in 0.3 mls culture medium containing 5 μg scAb. Samples of medium were taken at the indicated times and subjected to Western blotting to detect scAb using HRP-conjugated anti-human Cκ light chain antibody (UPPER PANEL) and serum albumin (LOWER PANEL) as a loading control. Results typical of 4 separate experiments.
# [6] = system: HepG2 cells; assay: Fluorescence binding to cells; format: cell-based
# [7] = system: hepatic stellate cell and hepatocytes co-cultured; format: cell-based, human
# Method: For co-culture experiments, hepatic stellate cells were seeded into hepatocytes cultures (1×10^3 cells per well) and cultured for 24 h prior to experimentation. The C1-3 or FITC-C1-3 scAb was incubated as outlined for pure hepatic stellate cell cultures except that after 1 hour incubation and washing, the cells were harvested by trypsinisation and centrifugation at 1000 rpm for 5 min. The cell pellet was then resuspended in 0.4% formaldehyde/10^6 cells, applied onto glass slides by cytocentrifugation and mounted with Vectashield containing DAPI. Slides were viewed by fluorescence microscopy as before.
# [8] = system: COS-7 cells; assay: Fluorescence binding to cells; format: cell-based
# [9] = target: T1, peptide YPFRLHQVYFDAPSC (SEQ ID NO 9) (Homo sapiens, UniProt P08247); assay: Expressed purified anti-peptide scAb ELISA; format: binding
# T1 construct: host or cells: chemical synthesis (Fmoc), no expression host
# Method: Expressed scAb was tested for its ability to interact with the peptide […] (SEQ ID NO: 9) by ELISA using anti-BSA-target peptide scAb. Wells of a 96 well plate were coated with BSA-target peptide or BSA and incubated with either C1-3 scAb (grey bars) or control scAb incubation buffer (clear bars) followed by extensive washing. Bound scAb was detected using the HRP conjugated anti-human Cκ light chain antibody and quantitated as outlined in methods section. Data are the mean and standard deviation of 3 separate determinations. ‘BSA-peptide 2’ is the target peptide.
# (§2) Purified polyclonal phage enriched for binders to peptides were assayed by ELISA using flat bottomed 96-well Immulon-4 microtitre plates (Dynex, Sussex, UK) coated with 2 μg/well protein (peptide-BSA or BSA) in PBS overnight at 4° C. Bound phage were detected by incubation with 100 μl/well horseradish peroxidase (HRP) conjugated anti-M13 antibody (AmershamPharmacia) for 1 h, washing, and incubation with 100 μl/well tetramethylbenzidine dihydrochloride solution (KPL Laboratories, Gaithersburg, Md.). Reactions were stopped with 50 μl/well 1M H2SO4, and the absorbance at 450 nm read using a microtitre plate reader.
# Expressed scAb was tested for its ability to interact with peptide by ELISA essentially as outlined for polyclonal anti-peptide phage-antibody ELISAs. […]
# [10] = target: T2, synaptophysin in rat HSCs (Rattus norvegicus, UniProt P07825); assay: Western analysis of cell extracts probed with C1-3 scAb; format: binding; conditions: rat HSC extract, FIG. 8
# T2 construct: endogenous in cells; host or cells: rat hepatic stellate cells
# T2 sequence (P07825 whole entry): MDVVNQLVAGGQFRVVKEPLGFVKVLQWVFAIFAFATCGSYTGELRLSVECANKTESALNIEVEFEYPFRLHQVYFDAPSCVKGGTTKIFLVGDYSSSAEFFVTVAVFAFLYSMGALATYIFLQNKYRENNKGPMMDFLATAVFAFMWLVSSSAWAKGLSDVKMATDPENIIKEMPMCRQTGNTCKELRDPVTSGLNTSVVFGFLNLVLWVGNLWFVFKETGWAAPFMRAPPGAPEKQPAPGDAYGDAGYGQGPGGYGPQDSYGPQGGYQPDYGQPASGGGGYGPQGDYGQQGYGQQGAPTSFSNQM
# Method: (§3) Western blot showing the binding of C1-3 scAb to the target peptide. Cell extracts (5 μg/lane) were subjected to Western blotting and membranes probed with C1-3 scAb followed by incubation with HRP conjugated anti-human Cκ light chain antibody and detection using ECL reagent. rHSCs—rat hepatic stellate cells; hHSCs—human hepatic stellate cells (AH4=anonymous patient code); rHCs—rat hepatocytes; B13—rat pancreatic stem cell; B13-H—rat pancreatic stem cell after trans-differentiation into an hepatocyte.
# (§4) Western blotting was performed essentially as described in Wright M. C. et al. Mol Pharmacol 1996; 50:856-63.
# [11] = target: T3, synaptophysin in human HSCs (Homo sapiens, UniProt P08247); assay: as above; format: binding; conditions: human HSC extract, FIG. 8
# T3 construct: endogenous in cells; host or cells: human hepatic stellate cells (patient-derived, AH4)
# T3 sequence (P08247 whole entry): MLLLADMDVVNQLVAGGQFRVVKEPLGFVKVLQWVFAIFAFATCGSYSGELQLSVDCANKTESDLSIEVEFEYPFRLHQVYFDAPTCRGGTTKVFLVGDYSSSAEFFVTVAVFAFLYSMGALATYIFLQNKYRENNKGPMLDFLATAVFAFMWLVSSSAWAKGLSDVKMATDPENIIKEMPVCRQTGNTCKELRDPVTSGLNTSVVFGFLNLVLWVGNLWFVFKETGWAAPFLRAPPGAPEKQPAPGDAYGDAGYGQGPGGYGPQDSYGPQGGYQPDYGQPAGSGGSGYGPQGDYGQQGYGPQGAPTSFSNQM
# Method: as §3, §4
# [12] = target: T4, target peptide-BSA (Homo sapiens, UniProt P08247); assay: Monoclonal phage-antibody ELISA; format: binding; conditions: FIG. 3
# T4 construct: host or cells: chemical synthesis (Fmoc), no expression host
# Method: C1-phage antibody clone (monoclonal) assayed for binding to the target peptide-BSA as outlined for FIG. 2.
# as §2
# Individual colonies from pan 3 were grown in 96 well plates (Greiner) and phage-antibodies rescued with M13 KO7.
# Specificity of phage supernatants for binding to peptide-BSA and BSA alone was determined by ELISA. The scFv encoding regions of positive clones were subcloned in to the expression vector pIMS147. This is a modification of the IPTG (isopropyl-β-D-thiogalactopyranoside) inducible pUC based vector pIMS100 (Hayhurst A. et al. Protein Expr Purif 1999; 15:336-43). The addition of a hexa-histadine tag permits purification of the expressed scAb by immobilised metal ion chelate affinity chromatography. Vectors were transformed into E. coli TG1 or XL1 blue cells.
molecule,measurement,setting,value
"FITC-BSA: FITC labelled bovine serum albumin, specificity control [reference compound]",green fluorescence associated with hepatic stellate cells,[1],displayed cytoplasmic foci of fluorescence
same,green fluorescence associated with human hepatocytes,[2],displayed cytoplasmic foci of fluorescence
YPFRLHQVYFDAPSC (listed as Homo sapiens) [C1-3 antigen],effect on FITC-C1-3 association/binding to HSCs,[3],decreased FITC-C1-3 binding to HSCs in a dose-dependent manner
CC[C@@]1([C@@H]2O[C@@H]([C@H]3O[C@@](O)(CO)[C@H](C)C[C@@H]3C)C[C@@H]2C)CC[C@H]([C@]2(C)CC[C@]3(C[C@H](O)[C@@H](C)[C@@H]([C@@H](C)[C@@H](OC)[C@H](C)C(=O)O)O3)O2)O1 [monensin],effect on FITC-C1-3 association/binding to HSCs,[3],did not inhibit the total number of cells stained
same,effect on FITC-C1-3 uptake (nuclear FITC-C1-3 staining),[3]; 10 minutes preincubation,reduced uptake
ATDPENIIKEMPMC (listed as Homo sapiens),effect on FITC-C1-3 association/binding to HSCs,[3],did not significantly inhibit
CN(C)CCCN1c2ccccc2Sc2ccc(Cl)cc21 [chlorpromazine],toxicity to HSCs (attachment as measure of viability),[4],kill HSCs
"C1-3 scAb: human single-chain antibody fragment with human Cκ domain and His tag, specific for synaptophysin peptide …; amino acid sequence SEQ ID NO 8 (protein, human Cκ domain and His tag; C1-3 amino acid sequence) scFv: MAEVQLLESGGGLVQPGGSLRLSCAASGFTFSSYAMSWVRQAPGKGLEWVSTIAASGPSTGYADSVKGRFTISRDNSKNTLYLQMNSLRAEDTAVYYCAKTTAKFDYWGQGTLVTVSSGGGGSGGGGSGGGGSTDIQMTQSPSSLSASVGDRVTITCRASQSISSYLNWYQQKPGKAPKLLIYSASRLQSGVPSRFNGSGSGTDFTLTISSLQPEDFATYYCQQLQRKPTTFGQGTKVEIKRGAAAPSVFIF",association with HSCs: change of culture medium concentration of scAb,[5],reduction in culture medium concentrations
same,fluorescence binding to HepG2 cells,[6],not detected
same,green fluorescence in hepatic stellate cell/hepatocyte co-cultures,[7],No significant green fluorescence
same,fluorescence binding to COS-7 cells,[8],not detected
same,scAb bound to peptide-BSA relative to BSA alone,"[9]; ELISA, FIG. 7",approximately 8 times
same,recognition of the peptide in ELISA,[9]; expressed scAb from XL-1 blue E coli,specifically recognised the peptide
same,cross-reaction with synaptophysin in rat HSCs,[10],did not cross-react
same,size of protein bound by scAb in Western analysis,[11],~32 kDa
same,green fluorescence associated with hepatic stellate cells,[1],No detectable green fluorescence
same,green fluorescence associated with human hepatocytes,[2],no associated green fluorescence
"C1: monoclonal phage-antibody clone from pan 3 of Tomlinson I+J libraries, subcloned to give C1-3 scAb (protein) scFv: MAEVQLLESGGGLVQPGGSLRLSCAASGFTFSSYAMSWVRQAPGKGLEWVSTIAASGPSTGYADSVKGRFTISRDNSKNTLYLQMNSLRAEDTAVYYCAKTTAKFDYWGQGTLVTVSSGGGGSGGGGSGGGGSTDIQMTQSPSSLSASVGDRVTITCRASQSISSYLNWYQQKPGKAPKLLIYSASRLQSGVPSRFNGSGSGTDFTLTISSLQPEDFATYYCQQLQRKPTTFGQGTKVEIKRGAAA",binding response in monoclonal phage-antibody ELISA,[12],good binding response
